Laboratory results published in patent US11708423B2, “Chimeric engulfment receptor molecules and methods of use” (CERO THERAPEUTICS, INC., priority 2017, dated 2023).

Legend:
[1] = system: CT26 murine colon carcinoma cells; assay: Phagocytic activity of CER+ Ba/F3 cells against murine cell line CT26; assay type: cell-based; conditions: target:effector 5:1, 3 hours
Method: One day prior to the phagocytosis assay, CT26 murine colon carcinoma cells were cultured in complete RPMI 1640 growth media supplemented with 10% fetal bovine serum and 1% penicillin-streptomycin in a 6-well plate and treated with 1 mM staurosporine (STS) for 12 hours to induce apoptosis. Untreated CT26 cells were used as a negative control.
On the day of the phagocytosis assay, CT26 cells were collected, washed twice with 1×PBS to remove excess staurosporine and then stained with 1 ng/μ1 pHrodo Red in PBS at room temperature for 15 minutes. […]
Target CT26 cells were co-cultured with stained, CER05^+tEGFR^+ cells at a ratio of 5:1 (target cell:effector cell) for 3 hours at 37° C. […] The 96 well plate was then viewed using KEYENCE BZ-X710 fluorescence microscope, 20X objective. […]
A hybrid capture algorithm that detects fluorescence of pHrodo Red within CELLTRACE Violet staining area was applied to fluorescent images to quantify the area of engulfed target cells/area of CER^+ B cells or control tEGFR+ B cells (see, FIG. 12). […]
A hybrid capture algorithm that detects fluorescence of pHrodo Red within CELLTRACE Violet staining area was applied to fluorescent images to quantify the area of engulfed target cells/area of CER^+ B cells (see, FIG. 17). […]

[2] = system: dexamethasone treated thymocytes; assay: Phagocytic activity of CER+ Ba/F3 cells against primary apoptotic thymocytes; assay type: cell-based, C3H mouse; conditions: for engulfment of dexamethasone-treated thymocytes: target:effector 10:1, 3 hours or overnight, fluorescent microscopy, vs EGFRt control
Method: One day prior to phagocytic assay, primary thymocytes were isolated from a C3H mouse (Charles River Laboratories International, Inc.). Thymocytes were cultured in complete RPMI 1640 growth media supplemented with 10% fetal bovine serum and 1% penicillin-streptomycin in a 6-well plate. To induce apoptosis and phosphatidylserine expression on the cell surface, thymocytes were treated with 1 μM dexamethansone for 24 hours. Untreated thymocytes were used as a negative control. Thymocytes were collected from the 6-well plates, washed once with sterile 1X PBS, and then stained with 1 ng/μ1 pH sensitive pHrodo™ Red dye (ThermoFisher Scientific, Catalog #P36600) in PBS at room temperature for 15 minutes. Labeling target cells with pHrodo Red dye permits visualization of cells that are engulfed and transported into lysosomes due to their increased light emission in the acidic lysosomal environment (Miksa et al., 2009, Immunol. Methods 342:71-7). The cells were then supplemented with growth media and washed one more time to remove any excess pHrodo Red. pHrodo Red stained thymocytes were plated on a flat bottom 96 well plate at 250,000 cells/well in RMPI 1640 complete media. […]
[…] The 96 well plate was then viewed using KEYENCE BZ-X710 fluorescence microscope, 20X objective. […]
A phagocytic index was calculated by multiplying [mean of total number of engulfed target cells/total number of counted CER modified cells (e.g., phagocytic frequency)] by [average area of target cell staining per CER+Ba/F3 cell x 100 (e.g., hybrid capture)] as compared to control EGFRt+Ba/F3 cells (see, FIG. 8). […]
Primary C3H mouse thymocytes were isolated, treated with dexamethasone, and stained with pHrodo Red as described in Example 1. […] Co-culture experiments were carried out at a 10:1 target cell to effector cell ratio, and Ba/F3 CER07^+tEGFR^+ cells were quantified for phagocytosis by fluorescence microscopy and FACs as described in Example 1. […]

human primary B cells = assay: Proliferation of CER+ B cells co-cultured with paclitaxel treated Jurkat cells (CELLTRACE Violet dilution); assay type: cell-based; conditions: 5 days co-culture with paclitaxel (30 μM) treated Jurkat cells, no exogenous cytokines
Method: The proliferation capacity of CER19+ and CER21+ human primary B cells was evaluated by co-culture with paclitaxel (30 μM) treated Jurkat lymphoma cells. CER-transduced B cells were labeled with CELLTRACE Violet and then co-cultured with paclitaxel treated Jurkat cells a target cell to effector cell ratio of 5:1 at 37° C. in the absence of exogenous cytokines for 5 days. Proliferation of CER19+ or CER21+B cells was assessed by flow cytometry by measuring dilution of CELLTRACE Violet (FIG. 23). Both CER19+ and CER21+ B cells increased approximately 10-fold after 5 days of co-culture in the absence of exogenous cytokines.

B1: CER07: Tim4 binding domain, TLR4 juxtamembrane spacer, TLR4 transmembrane domain, TLR4 signaling domain; SEQ ID NO:83 (protein)
chain: MSKGLLLLWLVTELWWLYLTPAASEDTIIGFLGQPVTLPCHYLSWSQSRNSMCWGKGSCPNSKCNAELLRTDGTRIISRKSTKYTLLGKVQFGEVSLTISNTNRGDSGVYCCRIEVPGWFNDVKKNVRLELRRATTTKKPTTTTRPTTTPYVTTTTPELLPTTVMTTSVLPTTTPPQTLATTAFSTAVTTCPSTTPGSFSQETTKGSAFTTESETLPASNHSQRSMMTISTDIAVLRPTGSNPGILPSTSQLTTQKTTLTTSESLQKTTKSHQINSRQTPVLSLNITCQMNKTIIGVSVLSVLVVSVVAVLVYKFYFHLMLLAGCIKYGRGENIYDAFVIYSSQDEDWVRNELVKNLEEGVPPFQLCLHYRDFIPGVAIAANIIHEGFHKSRKVIVVVSQHFIQSRWCIFEYEIAQTWQFLSSRAGIIFIVLQKVEKTLLRQQVELYRLLSRNTYLEWEDSVLGRHIFWRRLRKALLDGKSWNPEGTVGTGCNWQEATSI
modifications: CER07 chimeric engulfment receptor
Q: Which results are given for B1?
A: phagocytosis of staurosporine treated CT26 cells [1]: engulfed staurosporine treated CT26 cells; engulfment of dexamethasone-treated thymocytes [2]: engulfed dexamethasone-treated thymocytes

B2: CER05: Tim4 binding domain, Tim4 transmembrane domain, TLR4 signaling domain; SEQ ID NO:81 (protein)
chain: MSKGLLLLWLVTELWWLYLTPAASEDTIIGFLGQPVTLPCHYLSWSQSRNSMCWGKGSCPNSKCNAELLRTDGTRIISRKSTKYTLLGKVQFGEVSLTISNTNRGDSGVYCCRIEVPGWFNDVKKNVRLELRRATTTKKPTTTTRPTTTPYVTTTTPELLPTTVMTTSVLPTTTPPQTLATTAFSTAVTTCPSTTPGSFSQETTKGSAFTTESETLPASNHSQRSMMTISTDIAVLRPTGSNPGILPSTSQLTTQKTTLTTSESLQKTTKSHQINSRQTILIIACCVGFVLMVLLFLAFLKFYFHLMLLAGCIKYGRGENIYDAFVIYSSQDEDWVRNELVKNLEEGVPPFQLCLHYRDFIPGVAIAANIIHEGFHKSRKVIVVVSQHFIQSRWCIFEYEIAQTWQFLSSRAGIIFIVLQKVEKTLLRQQVELYRLLSRNTYLEWEDSVLGRHIFWRRLRKALLDGKSWNPEGTVGTGCNWQEATSI
modifications: CER05 chimeric engulfment receptor
Q: Which results are given for B2?
A: phagocytosis of staurosporine treated CT26 cells [1]: in vitro phagocytosis; co-localization of pHrodo red labeled thymocytes with LysoTracker green vesicles ([2]; 6 hours, 50 nM LysoTracker green): pHrodo-labeled target cells have been internalized into lysosomes; engulfment of dexamethasone-treated thymocytes [2]: engulf dexamethasone-treated thymocytes

B3: CER19: Tim4 binding and transmembrane domains, TLR5 signaling domain; SEQ ID NO:86 (protein)
chain: MSKGLLLLWLVTELWWLYLTPAASEDTIIGFLGQPVTLPCHYLSWSQSRNSMCWGKGSCPNSKCNAELLRTDGTRIISRKSTKYTLLGKVQFGEVSLTISNTNRGDSGVYCCRIEVPGWFNDVKKNVRLELRRATTTKKPTTTTRPTTTPYVTTTTPELLPTTVMTTSVLPTTTPPQTLATTAFSTAVTTCPSTTPGSFSQETTKGSAFTTESETLPASNHSQRSMMTISTDIAVLRPTGSNPGILPSTSQLTTQKTTLTTSESLQKTTKSHQINSRQTILIIACCVGFVLMVLLFLAFLTKFRGFCFICYKTAQRLVFKDHPQGTEPDMYKYDAYLCFSSKDFTWVQNALLKHLDTQYSDQNRFNLCFEERDFVPGENRIANIQDAIWNSRKIVCLVSRHFLRDGWCLEAFSYAQGRCLSDLNSALIMVVVGSLSQYQLMKHQSIRGFVQKQQYLRWPEDFQDVGWFLHKLSQQILKKEKEKKKDNNIPLQTVATIS
modifications: CER19 chimeric engulfment receptor
Q: Which “increase of CER+ B cells” value (human primary B cells) does the source give for B3 here?
A: approximately 10 fold
